# Conditions: Aspergillus oryzae (strain ATCC 42149 / RIB 40), Thermal, DSC, 3/3'-dimethylglutaric acid (DMG) 100 mM, NaCl 2 M, whole UniProt chain shown; for heat capacity change of unfolding / unfolding free energy: 25 °C
protein,measurement,setting,value
"Guanyl-specific ribonuclease T1 wild type, P00651 (protein) MMYSKLLTLTTLLLPTALALPSLVERACDYTCGSNCYSSSDVSTAQAAGYQLHEDGETVGSNSYPHKYNNYEGFDFSVSSPYYEWPILSSGDVYSGGSPGADRVVFNENNQLAGVITHTGASGNNFVECT",heat capacity change of unfolding,pH 4,1.59 kcal/mol/K
same,unfolding free energy,pH 4,7.43 kcal/mol
same,Tm,pH 4,72.4 °C
same,unfolding enthalpy (calorimetric),pH 4,93.7 kcal/mol
same,heat capacity change of unfolding,pH 5,1.59 kcal/mol/K
same,unfolding free energy,pH 5,7.39 kcal/mol
same,Tm,pH 5,73.2 °C
same,unfolding enthalpy (calorimetric),pH 5,93.2 kcal/mol
same,heat capacity change of unfolding,pH 6,1.59 kcal/mol/K
same,unfolding free energy,pH 6,6.91 kcal/mol
same,Tm,pH 6,70.4 °C
same,unfolding enthalpy (calorimetric),pH 6,90.2 kcal/mol
same,heat capacity change of unfolding,pH 7,1.59 kcal/mol/K
same,unfolding free energy,pH 7,4.54 kcal/mol
same,Tm,pH 7,66.8 °C
same,unfolding enthalpy (calorimetric),pH 7,71.7 kcal/mol
same,heat capacity change of unfolding,pH 8,1.59 kcal/mol/K
same,unfolding free energy,pH 8,3.63 kcal/mol
same,Tm,pH 8,65.4 °C
same,unfolding enthalpy (calorimetric),pH 8,63.8 kcal/mol
